Key:
[1] = target: his 태그가 부착된 재조합 인간 CD38 (recombinant human CD38 extracellular domain, His-tagged) (human) (UniProt P28907); assay: ForteBio (BLI), 1:1 fit
[2] = target: 인간 CD38 (human CD38, full length, on cells) (human) (UniProt P28907); assay: cell-based or functional assay

IB4 (antibody)
Kd [1]: 9 nM

다라투무맙 (daratumumab) (antibody)
CD38 시클라제 활성 억제 [2]: 70%

From patent KR20200019669A
